According to the supplement of paper PMC7877785:
± gives the uncertainty stated by the source.

Experiment: self-splicing fitness, log relative to wild type (ln ratio); higher = more splicing; Tetrahymena group I intron in knt gene, E. coli kanamycin selection, DiMSum; sequences stand for … in CUCUCU…GGAGGGAAAAGUUAUCAGGCAUGCACCUGGUAGCUAGUCUUUAAACCAAUAGAUUGCAUCGGUUUAAAAGGCAAGACCGUCAAAUUGCGGGAAAGGGGUCAACAGCCGUUCAGUACCAAGUCUCAGGGGAAACUUUGAGAUGGCCUUGCAAAGGGUAUGGUAAUAAGCUGACGGACAUGGUCCUAACCACGCAGCCAAGUCCUAAGUCAACAGAUCUUCUGUUGAUAUGGAUGCAGUUCACAGACUAAAUGUCGGUCGGGGAAGAUGUAUUCUUCUCAUAAGAUAUAGUCGGACCUCUCCUUAAUGGGAGCUAGCGGAUGAAGUGAUGCAACACUGGAGCCGCUGGGAACUAAUUUGUAUGCGAAAGUAUAUUGAUUAGUUUUGGAGUACUCGUGGUCG
Outline: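 Fitness was computed with DiMSum as the error-weighted combination of replicate fold changes, kanamycin versus none, each normalised to wild type. The library randomised all eight intron nucleotides of the P1ex region, with the intron placed in the knt kanamycin-resistance gene on pET-22b(+) in E. coli BL21(DE3). Six replicate transformations were grown overnight at 37°C or 30°C on LB agar with or without 25 μg/mL kanamycin, plus 100 μg/mL carbenicillin, 50 μM IPTG and 0.2% rhamnose. Pooled colonies were amplicon-sequenced on an Illumina HiSeq 2500.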

Sequence | self-splicing fitness (ln) (30 °C) | self-splicing fitness (ln) (37 °C)
AUGCAGCAAUAUUACGCGCA | -1.91 ± 0.14 | -1.39 ± 0.099
UACUAGCAAUAUUACGUGAC | -2.29 ± 0.13 | -1.93 ± 0.26
ACAUAGCAAUAUUACGCGCA | -0.42 ± 0.076 | -0.818 ± 0.088
CAGAAGCAAUAUUACGCAUC | -4.43 ± 0.37 | -2.37 ± 0.14
CAUAAGCAAUAUUACGUGUG | -3.56 ± 0.15 | -2.94 ± 0.17
UCUUAGCAAUAUUACGAGUU | -2.85 ± 0.16 | -0.665 ± 0.15
AUGAAGCAAUAUUACGGACG | -0.554 ± 0.066 | 0.536 ± 0.091
GCCUAGCAAUAUUACGCGCA | -1.21 ± 0.12 | -0.303 ± 0.11
CUUCAGCAAUAUUACGUUGU | -3.52 ± 0.18 | -2.92 ± 0.28
ACGAAGCAAUAUUACGUUUU | -4.13 ± 0.16 | -1.8 ± 0.11
ACUUAGCAAUAUUACGAAUG | -2.24 ± 0.11 | -1.13 ± 0.12
GAAAAGCAAUAUUACGGUUG | -2.39 ± 0.088 | -1.42 ± 0.12
AAAUAGCAAUAUUACGGUCC | -1.33 ± 0.12 | -0.378 ± 0.19
GAUAAGCAAUAUUACGGGGG | -3.65 ± 0.26 | -3.04 ± 0.28
GGCUAGCAAUAUUACGCGCU | -2.76 ± 0.25 | -2.42 ± 0.3
GACGAGCAAUAUUACGGUCU | -2.33 ± 0.15 | -2.8 ± 0.27
CGGUAGCAAUAUUACGAGUA |  | -1.32 ± 0.4
UAGUAGCAAUAUUACGUGUG | -2.02 ± 0.11 | -1.23 ± 0.13
CGCAAGCAAUAUUACGGUGC | -4.9 ± 0.29 | -2.53 ± 0.23
GUAAAGCAAUAUUACGUUGC | -2.38 ± 0.1 | -3.2 ± 0.26
UGAUAGCAAUAUUACGACAA |  | -2.07 ± 0.35

Sequence | self-splicing fitness (ln) (30 °C) | self-splicing fitness (ln) (37 °C)
UGCUAGCAAUAUUACGUAUC |  | -2.07 ± 0.38
AACCAGCAAUAUUACGACGA | -0.496 ± 0.076 | -0.38 ± 0.071
UUCCAGCAAUAUUACGGUUU | -0.65 ± 0.064 | -0.427 ± 0.063
UAGAAGCAAUAUUACGCAGC | -4.25 ± 0.46 | -2.93 ± 0.31
AGCGAGCAAUAUUACGUGGU | -3.2 ± 0.25 | -3.06 ± 0.22
UAAUAGCAAUAUUACGAUCG | 0.121 ± 0.076 | 0.472 ± 0.099
CACAAGCAAUAUUACGAACG | -0.561 ± 0.055 | 0.286 ± 0.079
GUCGAGCAAUAUUACGCGGU |  | -1.94 ± 0.32
CCAGAGCAAUAUUACGUGUA | -3.22 ± 0.21 | -2.08 ± 0.23
ACUUAGCAAUAUUACGGUGU | -2.79 ± 0.11 | -1.64 ± 0.097
GAUUAGCAAUAUUACGGGCA | -1.13 ± 0.13 | -0.685 ± 0.12
GUUCAGCAAUAUUACGGCAG | -2.82 ± 0.28 | -1.82 ± 0.31
CUAUAGCAAUAUUACGUACG | 0.0512 ± 0.15 | -0.136 ± 0.14
UUCGAGCAAUAUUACGAAAA | -2.97 ± 0.31 | -1.28 ± 0.18
CCUUAGCAAUAUUACGGAAA | -3.07 ± 0.24 | 
AAGAAGCAAUAUUACGAUGU | -1.29 ± 0.086 | -1.01 ± 0.1
AUGUAGCAAUAUUACGAUCU | -0.222 ± 0.056 | 0.524 ± 0.073
GACAAGCAAUAUUACGCGUC | -4.02 ± 0.22 | -3.45 ± 0.39
UUUAAGCAAUAUUACGCUAC | -3.5 ± 0.32 | 
CCACAGCAAUAUUACGGACG | -0.832 ± 0.05 | -0.23 ± 0.066
AACAAGCAAUAUUACGAAAU | -3.53 ± 0.13 | -1.4 ± 0.095

Sequence | self-splicing fitness (ln) (30 °C) | self-splicing fitness (ln) (37 °C)
UAUGAGCAAUAUUACGUUAC | -3.37 ± 0.36 | -2.48 ± 0.23
AAUGAGCAAUAUUACGCCCG | -2.18 ± 0.43 | -1.76 ± 0.42
GGCGAGCAAUAUUACGAGAC | -1.31 ± 0.49 | 
CUGCAGCAAUAUUACGGCUA | -2.6 ± 0.19 | -0.78 ± 0.17
GCGGAGCAAUAUUACGGUGA | -2.38 ± 0.46 | 
AUUUAGCAAUAUUACGAGCC | -1.74 ± 0.46 | 
AGGAAGCAAUAUUACGUCGC | -2.62 ± 0.28 | -2.06 ± 0.24
CGUGAGCAAUAUUACGUUCG | -2.61 ± 0.15 | -3.09 ± 0.28
UAGAAGCAAUAUUACGUGGG | -3.09 ± 0.18 | -2 ± 0.19
AAAAAGCAAUAUUACGCUAU | -2.04 ± 0.11 | -1.31 ± 0.11
CUAAAGCAAUAUUACGAUCG | 0.485 ± 0.073 | 0.485 ± 0.1
AGAAAGCAAUAUUACGGGAA | -2.72 ± 0.13 | -1.73 ± 0.12
AACGAGCAAUAUUACGGAGG | -2.79 ± 0.19 | -2.38 ± 0.27
AGAUAGCAAUAUUACGGGCU | -1.34 ± 0.15 | -1.38 ± 0.21
GUGCAGCAAUAUUACGGUAC | -2.67 ± 0.15 | -2.07 ± 0.17
GUUGAGCAAUAUUACGUGUA | -3 ± 0.21 | 
GAAAAGCAAUAUUACGAUUU | -0.346 ± 0.052 | -0.372 ± 0.073
UAUGAGCAAUAUUACGCUGU | -3.79 ± 0.25 | -3.21 ± 0.24
GAUGAGCAAUAUUACGUGUG | -2.57 ± 0.14 | -1.45 ± 0.12
GUAGAGCAAUAUUACGAUAA | -1.5 ± 0.15 | 0.242 ± 0.19
GUAUAGCAAUAUUACGCCGU | -2.69 ± 0.23 | -0.947 ± 0.19
